The record followed here is patent publication US20170119874A1 (INSTITUTE FOR RESEARCH IN BIOMEDICINE, published 2017).

Common to all, as to experiment: cell-based or functional assay
Experiment [1] has as its target T1, gHgLpUL128pUL130 (HEK293T cells transfected with the HCMV genes) (HCMV, UniProt P12824 24-743; P16832 31-278; P16837 1-171; P16772 1-214).
T1 sequence (looked up) 1: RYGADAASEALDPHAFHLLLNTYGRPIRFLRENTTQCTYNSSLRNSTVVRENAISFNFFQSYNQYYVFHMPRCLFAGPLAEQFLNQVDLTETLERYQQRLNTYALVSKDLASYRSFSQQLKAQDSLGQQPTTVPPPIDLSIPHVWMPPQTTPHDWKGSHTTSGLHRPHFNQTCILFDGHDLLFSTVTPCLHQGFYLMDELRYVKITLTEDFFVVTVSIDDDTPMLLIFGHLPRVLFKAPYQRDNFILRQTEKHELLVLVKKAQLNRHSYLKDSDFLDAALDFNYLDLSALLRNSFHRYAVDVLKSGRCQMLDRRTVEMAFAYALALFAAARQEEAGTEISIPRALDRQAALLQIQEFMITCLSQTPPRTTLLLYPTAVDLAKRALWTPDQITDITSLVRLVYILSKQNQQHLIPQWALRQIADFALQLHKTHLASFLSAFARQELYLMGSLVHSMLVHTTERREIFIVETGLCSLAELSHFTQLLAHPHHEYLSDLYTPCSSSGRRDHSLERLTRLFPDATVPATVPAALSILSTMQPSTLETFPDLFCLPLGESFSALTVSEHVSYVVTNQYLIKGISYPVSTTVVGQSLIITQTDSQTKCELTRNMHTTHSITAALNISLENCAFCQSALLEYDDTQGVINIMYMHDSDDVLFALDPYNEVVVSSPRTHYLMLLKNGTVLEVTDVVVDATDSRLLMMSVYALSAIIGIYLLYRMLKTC
T1 sequence (looked up) 2: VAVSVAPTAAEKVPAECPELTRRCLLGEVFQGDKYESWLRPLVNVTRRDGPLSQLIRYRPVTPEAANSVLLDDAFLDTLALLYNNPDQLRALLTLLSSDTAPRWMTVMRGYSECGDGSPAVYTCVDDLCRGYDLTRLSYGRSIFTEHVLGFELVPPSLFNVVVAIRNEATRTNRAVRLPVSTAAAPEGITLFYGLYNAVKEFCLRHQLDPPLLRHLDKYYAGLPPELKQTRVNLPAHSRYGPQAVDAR
T1 sequence (looked up) 3: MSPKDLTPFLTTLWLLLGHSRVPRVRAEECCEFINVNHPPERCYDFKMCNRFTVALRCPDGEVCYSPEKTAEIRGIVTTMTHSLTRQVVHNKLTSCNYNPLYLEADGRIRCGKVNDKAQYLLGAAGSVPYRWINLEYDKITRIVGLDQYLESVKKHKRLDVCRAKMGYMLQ
T1 sequence (looked up) 4: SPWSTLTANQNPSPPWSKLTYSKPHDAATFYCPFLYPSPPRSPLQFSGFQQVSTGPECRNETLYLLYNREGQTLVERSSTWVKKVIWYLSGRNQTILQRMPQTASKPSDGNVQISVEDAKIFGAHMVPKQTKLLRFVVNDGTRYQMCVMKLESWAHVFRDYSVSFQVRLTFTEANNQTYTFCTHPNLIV

For experiment [2], the target named is T2, pUL130pUL131 (HEK293T cells transfected with the HCMV genes) (HCMV, UniProt P16772 1-214; F5HET4 19-129).
T2 sequence (looked up) 1: T1 sequence (looked up) 4
T2 sequence (looked up) 2: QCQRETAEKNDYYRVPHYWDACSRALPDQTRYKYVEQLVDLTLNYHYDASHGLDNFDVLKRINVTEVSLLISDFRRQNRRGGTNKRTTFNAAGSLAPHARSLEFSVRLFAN

For experiment [3], the target named is T3, pUL128 (HEK293T cells transfected with the HCMV gene) (HCMV, UniProt P16837 1-171, limits assumed).
T3 sequence (looked up): T1 sequence (looked up) 3

Experiment [4] deals with T4, pUL128pUL130pUL131 (HEK293T cells transfected with the HCMV genes) (HCMV, UniProt P16837 1-171; P16772 1-214; F5HET4 19-129).
T4 sequence (looked up) 1: T1 sequence (looked up) 3
T4 sequence (looked up) 2: T1 sequence (looked up) 4
T4 sequence (looked up) 3: T2 sequence (looked up) 2

B1: human monoclonal antibody 8I21 (antibody, V domains shown)
VH: LVELVESGGGVVQPGRSLRLSCAASGFTFSSDGMHWVRQSPGRGLEWVAFISSDGSTPYYADSVKGRFTISRDNSKNTLYLQMNSLRAEDTAMYFCAKDWALFRWLRTFDHWGQGTLVTVSS
VL: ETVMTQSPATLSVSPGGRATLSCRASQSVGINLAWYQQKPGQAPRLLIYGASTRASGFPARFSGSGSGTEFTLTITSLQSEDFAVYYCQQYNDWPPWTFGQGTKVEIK
B1: the “Log IC80, neutralization of HCMV infection of epithelial cells” value (from here on “Log IC80, neutralization”) in experiment [1] was -9.5 log IC80 (concentration unit not printed).

B2: human monoclonal antibody 10P3 (antibody, V domains shown)
VH: EVQLVESGGGLVRPGGSLRLSCAASGFTFHNYRMNWVRQAPGKGLEWVANIKQDGSEKSYVDSVRGRFTTSRDNSKNSLYLQINSLRAEDTAVYYCARGEGYTYGVVYSYSAMDVWGQGTTVIVSS
VL: SYELTQPPSVSVSPGQTARITCSGNVLPNQYASWYQQKPGQAPVLVIYKDTERPSGIPGRFSGSSSGTTVTLTISGVQAEDEADYYCQSADSSGADYVFGTGTKVTVL
As for B2, the “Log IC80, neutralization” value in experiment [2] is -10.5 log IC80 (concentration unit not printed).

B3: human monoclonal antibody 8L13 (antibody, V domains shown)
VH: QVQLLESGGGVVQPGRSLRLSCAASGFTFSNYGMHWVRQAPGKGLEWVAVIWNDGSKKYYAESVKGRFTISRDNSKNTVYLQMNSLRAEDTAVYYCARDEGVQMVFAMPDYGMDVWGQGTTVTVSS
VL: SYELTQPPSVSVSPGQTASITCSGDKLGDKFACWYQQRPGQSPILVIYQDSKRPSGIPERFSGSNSGNTATLTIRGTQAMDEADYYCQAWDSSTAHYVFGTGTKVTVL
With B3, the “Log IC80, neutralization” value in experiment [2] was -11.6 log IC80 (concentration unit not printed).

B4: human monoclonal antibody 15D8 (antibody, V domains shown)
VH: EVQLVQSGAEVKKPGESLKISCQASGYSFTNYWIAWVRQMPGKGLEWMGIIYPGDSDIKYSPSFRGQVTISADKSISNAFLQWRSLRASDTAMYYCARHAIRGDGFDYWGQGTLVTVSS
VL: SYELTQPPSVSVSPGQTATITCSGDKLGEKYACWYQQKPGQSPVLVMYQDTKRPSGIPERFSGSNSGNTATLTISGTRAMDEADYYCQAWDTNTVIFGGGTKLTVL
With B4, the “Log IC80, neutralization” value in experiment [3] is -11 log IC80 (concentration unit not printed).

B5: human monoclonal antibody 7I13 (antibody, V domains shown)
VH: QVQLVESGGGVVQPGRSLRLSCAASGFTFSNYGMHWVRQGPGKGLEWVAVISYDASSKYYTDSVQGRFTISRDNSKNTLFLQMNSLRGEDTAVYYCAKALRYLDWFLSDPFDYWGQGTLVTVSS
VL: EIVLTQSPGTLSLSPGERATLSCRASQSVSSDFLAWYQQKPGQAPRLLIYGASSRATGIPDRFSGSGSGTDFTLTISRLEPEDFAVYYCQQYAASPPFGQGTRLEIK
For B5, the “Log IC80, neutralization” value in experiment [4] was -11 log IC80 (concentration unit not printed).

B6: human monoclonal antibody 8J16 (antibody, V domains shown)
VH: QVQLQESGPGLVKPSETLSLTCSVSGGFTSSYYWSWIRQAPGKGLEWIGYVYYGESTDYNPSLKSRATISIDTSKNQFSLKLSSVTAADTAVYYCAREVDKRGFDYWGQGALVTVSS
VL: EIVLTQSPGTLSLSPGERATLSCRASQSVSGGYLAWYQQEPGQAPRLVIYGASSRATGIPDRFSASGSGTDFTLTITRLEPEDFAVYYCQQYGRTPLTFGGGTKVEIK
Take B6: the “Log IC80, neutralization” value in experiment [4] is -12.3 log IC80 (concentration unit not printed).
